Data published in patent US20250197513A1 (University of Texas, published 2025).

T1: recombinant OSMR protein (Sino Biologicals, 11226-H08H), extracellular domain of OSMR (UniProt Q99650 28-740)
T1 construct: extracellular domain; also called OSMR antigen
T1 sequence (looked up): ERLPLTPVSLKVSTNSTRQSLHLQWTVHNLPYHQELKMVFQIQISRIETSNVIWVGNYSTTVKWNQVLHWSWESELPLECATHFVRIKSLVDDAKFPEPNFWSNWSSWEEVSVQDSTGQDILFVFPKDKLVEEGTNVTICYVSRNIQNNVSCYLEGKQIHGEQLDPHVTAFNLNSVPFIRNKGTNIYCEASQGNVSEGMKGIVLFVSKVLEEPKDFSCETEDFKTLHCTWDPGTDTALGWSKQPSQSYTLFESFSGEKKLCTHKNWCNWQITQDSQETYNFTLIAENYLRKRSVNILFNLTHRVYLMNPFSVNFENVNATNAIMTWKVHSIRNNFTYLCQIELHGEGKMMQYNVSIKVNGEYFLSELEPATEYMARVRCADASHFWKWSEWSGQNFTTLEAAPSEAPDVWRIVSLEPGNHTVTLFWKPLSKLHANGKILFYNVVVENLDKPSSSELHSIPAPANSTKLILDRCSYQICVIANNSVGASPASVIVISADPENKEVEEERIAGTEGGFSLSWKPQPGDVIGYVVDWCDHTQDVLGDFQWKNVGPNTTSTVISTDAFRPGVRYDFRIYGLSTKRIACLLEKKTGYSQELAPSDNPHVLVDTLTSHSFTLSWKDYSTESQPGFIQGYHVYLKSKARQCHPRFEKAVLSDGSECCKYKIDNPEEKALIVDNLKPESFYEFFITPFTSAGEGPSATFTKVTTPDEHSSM


Biological target: T1, recombinant OSMR protein (Sino …)
Assay: screening of full-length IgG1 clones on recombinant OSMR extracellular domain

Row | binding result | Binder
1 | binds | B08 monoclonal antibody (antibody, V domains shown, also called B08 mAb) VH: QVQLVQSGGGLVKPGGSLRLSCAASGFTFSSYSMNWVRQAPGKGLEWVSSISSSSSYIYYADSVKGRFTISRDNAKNSLYLQMNSLRAEDTAVYYCARDIALPYYGMDVWGQGTMVTVSS VL: not shown
2 | binds | B09 monoclonal antibody (antibody, V domains shown, also called B09 mAb) VH: QVQLVQSGAEVKKPGSSVKVSCKTSGGTFSSYAISWVRQAPGQGLEWMGGIIPISGTANYAQKLQGRVTITADESTSTAYMELSSLRSEDTAVYYCGRGDYCNGGSCSYTNYYGMDVWGQGTMVTVSS VL: QAVVTQPPSASGTPGQRSTISCSGGSANIGSNSVHWYQQFPGTAPKLLIFNNNQRPSGVPDRFSGSKSGTSASLAISGLQSEDEADYFCAAWDDSLKGPVFGGGTKVTVL
3 | binds | B10 monoclonal antibody (antibody, V domains shown, also called B010; B10 mAb) VH: QVQLVQSGAEVKKPGASVKVSCKASGYTFTSYYMHWVRQAPGQGLEWMGIINPSGGSTSYAQKFQGRVTMTRDTSTSTVYMELSSLRSEDTAVYYCARDKAHDSSGYYDAFDIWGQGTTVTVSS VL: QSALTQPPSASGTPGQRVTISCSGSGSNIGSNTVNWYQQLPGTAPRLLIYRNNQRPSGVPDRFSGSKSGTSASLAISGLESEDEADYFCATWDDSLNDYVFATGTQLTVL
4 | binds | B12 monoclonal antibody (antibody, V domains shown, also called B12 mAb) VH: not shown VL: QSALTQPHSVSESPGKTVTISCTRSSGSIANNHVQWYQQRPGSAPIIVIYEDNQRPSGVPDRFSGSIDSSSNSASLTLSGLKTEDEAAYYCQSYDDNNWVFGGGTKVTVL
5 | binds | B13 monoclonal antibody (antibody, V domains shown, also called B13 mAb) VH: EVQLVQSGAEVKKPGSSVKVSCKASGGTFSSYAITWVRQAPGQGLEWMGGIIPIVGTANYAQKFQGRLTITADESTSTAYMELSSLRSEDTAVYYCARGDYCSGGSCSYTNYYGMDVWGQGTTVTVSS VL: not shown
6 | binds | B05 monoclonal antibody (antibody, V domains shown, also called B05 mAb) VH: QVQLVESGGGVVRPGGSLRLSCAASGFTFDDYGMSWVRQAPGKGLEWVSGINWNGGSTGYADSVKGRFTISRDNAKNSLYLQMNSLRAEDTALYHCARVNYDSSGLRGAFDIWGQGTTVTVSS VL: AIQLTQSPSSLSASVGDRVTITCQASQDISNYLNWYQQKPGKAPKLLIYDASNLETGVPSRFSGSGSGTDFTFTISSLQPEDIATYYCQQYDNLPTFGQGTRLEIK
7 | binds | B16 monoclonal antibody (antibody, V domains shown, also called B016; B16 mAb) VH: QVELVESGGGVVRPGGSLRLSCAASGFTFDDYGMSWVRQAPGKGLEWVSGINWNGGSTGYADSVKGRFTISRDNAKNSLYLQMNSLRAEDTALYHCARVNYDSSGLRGAFDIWGQGTTVTVSS VL: DVQMTQSPSSLSASVGDRVTITCQASQDISNYLNWYQQKPGKAPKLLIYDASNLETGVPSRFSGSGSGTDFTFTISSLQPEDIATYYCQQYDNLPTFGQGTRLEIK
8 | binds | B17 monoclonal antibody (antibody, V domains shown, also called B17 mAb) VH: QVELQESGPGLVQPSGTLSLTCAVSGGSMGSSNWWSWVRQPPGKGLEWIGEVYHTGSTNYNPSLRSRVTISVDKSKKQFSLELTSVTAADTAVYFCARDLTVTGSFDIWGQGTMVTVSS VL: QAVVTQPRSVSGSPGQSVTISCTGSSSDVGAYNYVSWYQQHPGKAPKLIISDVSDWPSGVPDRFSGSKSGNTASLTISGLQADDEADYYCFSYAGNYNWVFGGGTKLTVL
9 | binds | B19 monoclonal antibody (antibody, V domains shown, also called B19 mAb) VH: QVELVESGGGLVQPGRSLRLSCAASGFTFDDYAMHWVRQAPGKGLEWVSGISWNSGSIGYADSVKGRFTISRDNAKNSLYLQMNSLRAEDTALYYCAKDIGVYYYGMDVWGQGTTVSVSS VL: QSALTQPPSASGTPGQKVTISCSGSSSNIGSSPVNWYQQFPGPAPKLLIHSNNQRPSGVPDRFSGSKSGTSASLAISGLQSDDEADYYCAAWDDSLNAYVFGTGTKVTVL
10 | binds | H09 monoclonal antibody (antibody, V domains shown, also called H09 mAb) VH: EVQLVQSGAEVKKPGASVKVSCKASGYTFTGYYMHWVRQAPGHGLEWMGWINPNSGGTNYAQKFQGRVTMTRDTSISTAYMELSGLRSDDTAVYYCARDKGAWSGSYPGYNWFDPWGQGTLVTVSS VL: QAVVTQPPSASGTPGQRVTISCSGSSSTIGTNPVNWYRHLPGTAPKLLIYSNNQRPSGVPDRVSGSKSGTSASLAISGLQSEDEADYYCATLDDSLNGYVFGTGTKVTVL
11 | binds | H10 monoclonal antibody (antibody, V domains shown, also called H10 mAb) VH: QVQLVQSGAEVKKPGASVKVSCKASGYTFTSYYMHWVRQAPGQGLEWMGIINPSGGSTSYAQKFQGRVTMTRDTSTSTVYMELSSLRSEDTAVYYCARGTTYDAFDIWGQGTTVSVSS VL: not shown
12 | binds | H11 monoclonal antibody (antibody, V domains shown, also called H11 mAb) VH: EVQLVQSGPEVRKPGASVQISCKASGYTFTTSYIHWVRQAPGQGLEWLGLVNPNDGSTTYTQNFQGRVTMTSDTSTSTVYMELSRVTYADTAVYYCAKDIRDYVWGTYRYESAFDIWGQGTTVTVSS VL: QAVVTQPPSVSVSPGQTASITCSGDKLGDKYVSWYQQKPGQPPILVMYQDNRRPSGIPERFSGSNSGNTATLTISGTQAMDEADYYCQTWDSSTASYVFGTGTKVTVL
13 | binds | H12 monoclonal antibody (antibody, V domains shown, also called H12 mAb) VH: EVQLVQSGAEVKKPGSSVKVSCKTSGGTFSSYAISWVRQAPGQGLEWMGGIIPISGTANYPQKLQGRVTITADESTSTAYMELSSLRSEDTAMYYCARGDYCNGGSCSYTNYYGMDVWGQGTTVIVSS VL: QSALTQPPSVSVAPGKTAMITCGGTNIRSQNVHWYQQKPGQAPVLVIYWDSSRPSGIPERISGSNSGSTATLTISRVEAGDEADYYCQVWDATRDHVVFGGGTKVTVL
14 | binds | H13 monoclonal antibody (antibody, V domains shown, also called H13 mAb) VH: QVQLVQSGAEVKKPGASVKVSCKVSGYSFSSHGISWVRQAPGQGLEWMGWISAYNGNTNYAQNLQGRVRMTTDTSTNTAHMELRSLRSDDTAVYYCARDQDEANWNNNYYFDYWGQGTLVTVSS VL: NFMLTQPHSVSESPGKTVTISCTGSSGSIASKYVQWYQQRPGSAPTSVIYEDNQRPSGVPDRFSGSIDRSSNSASLTISGLKTEDEADYHCQSYDSANRVVFGGGTKVTVL
15 | binds | H14 monoclonal antibody (antibody, V domains shown, also called H14 mAb) VH: QVQLVQSGAEVKKPGSSVKVSCKASGGTFSSYAISWVRQAPGQGLEWMGGIIPIFGTANYAQKFQGRVTITADESTSTAYMELSSLRSEDTAVYYCAREATPFMILGAFDIWGQGTMVIVSS VL: not shown
16 | binds | H16 monoclonal antibody (antibody, V domains shown, also called H16 mAb) VH: QVQLLQSGAEVKKPGSSVKVSCKASGGTFSSYAISWVRQAPGQGLEWMGGIIPIFGTANYAQKFQGRVTITADESTSTAYMELSSLRSEDTAVYYCASSYYGSGTTWFDPWGQGTLVTVSS VL: not shown
17 | binds | B01 monoclonal antibody (antibody, V domains shown, also called B01 mAb) VH: QVQLVQSGAEVKKPGASVKVSCKASGYSFTSYFIHWVRQAPGQGLEWMGIINPAGGNTNYAQRFQGRVTMTRDTSTSTVYMELSSLRSDDTAVYYCARDKDYGEGAFDLWGQGTMVSVSS VL: QSALTQPPSVSGAPGQRVTISCTGSSSNIGAGYDVHWYQQLPGTAPKLLIYGNSNRPSGVPDRFSGSKSGTSASLAITGLQAEDEADYYCQSYDSSLSGWVFGGGTKVTVL
18 | binds | B02 monoclonal antibody (antibody, V domains shown, also called B02 mAb) VH: QVELQESGSGLVKPSQTLSLTCAVSGGSISSGGYSWSWIRQPPGKGLEWIGYIYHSGSTYYNPSLKSRVTISVDRSKNQFSLKLSSVTAADTAVYYCARELGYCSSTSCPWGAFDIWGQGTLVSVSS VL: QAVVTQPPSVSAAPGQKVTISCSGSSSNIGNNYVSWYQQLPGTAPKLLIYDNNKRPSGIPDRFSGSKSGTSATLGITGLQTGDEADYYCGTWDSSLSAVVFGGGTQLTVL
19 | binds | B03 monoclonal antibody (antibody, V domains shown, also called B03 mAb) VH: QVQLVESGGGVVRPGGSLRLSCAASGFTFDDYGMSWVRQAPGKGLEWVSGINWNGGSTGYADSVKGRFTISRDNAKNSLYLQMNSLRAEDTALYHCARVNYDSSGLRGAFDIWGQGTMVIVSS VL: DIVMTQSPSSLSASVGDRVTITCQASQDISNYLNWYQQKPGKAPKLLIYDASNLETGVPSRFSGSGSGTDFTFTISSLQPEDIATYYCQQYDNLPITFGQGTRLEIK
20 | binds | B04 monoclonal antibody (antibody, V domains shown, also called B04 mAb) VH: EVQLVQSGGGVVQPGRSLRLSCAASGFTFSSYAMHWVRQAPGKGLEWVAVISYDGSNKYYADSVKGRFTISRDNSKNTLYLQMNSLRAEDTAVYYCARESGVSGDYYYYGMDVWGQGTMVTVSS VL: AIQLTQSPSSLSASVGDRVTITCQASQDIKNYLNWYQQRPGKAPKLLIYDASNLETGVPSRFSGGGSGTDFTFTISSLQPEDIATYYCQHYDSLPITFGQGTRLEIK
21 | binds | B06 monoclonal antibody (antibody, V domains shown, also called B06 mAb) VH: QVQLVESGGGLVQPGRSLRLSCAASGFTFDDYAMHWVRQAPGKGLEWVSGISWNSGSIGYADSVKGRFTISRDNAKNSLYLQMNSLRAEDTALYYCAKDITSSGWYWFDYWGQGTLVTVSS VL: not shown
